Reference: the Immune Epitope Database (IEDB)
Each block holds one sequence with its values, some of them ahead of it.

Legend:
[1] = molecular target: HLA-B*15:17; test: IEDB peptide-MHC binding, purified MHC/direct/fluorescence; filed as Kd, often an IC50 or EC50 that approximates it; ≥ and ≤ were set here for values at or beyond the usual limits of such assays
[2] = molecular target: HLA-B*58:01; test: as above
[3] = molecular target: HLA-B*57:01; test: as above
[4] = molecular target: HLA-A*31:01; test: IEDB peptide-MHC binding, purified MHC/competitive/fluorescence; filed as Kd, often an IC50 or EC50 that approximates it; ≥ and ≤ were set here for values at or beyond the usual limits of such assays
[5] = molecular target: HLA-A*03:01; test: IEDB peptide-MHC binding, purified MHC/direct/fluorescence; filed as Kd, often an IC50 or EC50 that approximates it; ≥ and ≤ were set here for values at or beyond the usual limits of such assays
[6] = molecular target: HLA-B*44:02; test: as above; details: source organism: Escherichia coli O157:H7
[7] = molecular target: HLA-A*01:01; test: as above
[8] = molecular target: HLA-A*11:01; test: as above
[9] = molecular target: HLA-B*07:02; test: as above; details: source organism: Escherichia coli O157:H7
[10] = molecular target: HLA-A*68:02; test: as above; details: source organism: Escherichia coli O157:H7
[11] = molecular target: HLA-B*18:01; test: as above; details: source organism: Escherichia coli O157:H7
[12] = molecular target: HLA-A*69:01; test: as above
[13] = molecular target: HLA-B*40:01; test: as above; details: source organism: Escherichia coli O157:H7
[14] = molecular target: HLA-B*27:05; test: as above; details: source organism: Escherichia coli O157:H7
[15] = molecular target: HLA-B*15:01; test: as above; details: source organism: Escherichia coli O157:H7
[16] = molecular target: HLA-A*02:01; test: as above; details: source organism: Escherichia coli O157:H7
[17] = molecular target: HLA-A*31:01; test: as above; details: source organism: Escherichia coli O157:H7
[18] = molecular target: HLA-B*48:01; test: as above; details: source organism: Escherichia coli O157:H7
[19] = molecular target: HLA-A*11:01; test: IEDB peptide-MHC binding, purified MHC/competitive/fluorescence; ≥ and ≤ were set here for values at or beyond the usual limits of such assays
[20] = molecular target: HLA-A*02:01; test: as above
[21] = molecular target: HLA-A*03:01; test: as above
[22] = molecular target: HLA-A*03:01; test: IEDB peptide-MHC binding, purified MHC/competitive/fluorescence; filed as Kd, often an IC50 or EC50 that approximates it; ≥ and ≤ were set here for values at or beyond the usual limits of such assays
[23] = molecular target: HLA-A*30:01; test: IEDB peptide-MHC binding, purified MHC/competitive/radioactivity; filed as Kd, often an IC50 or EC50 that approximates it; ≥ and ≤ were set here for values at or beyond the usual limits of such assays; details: source organism: Dengue virus 1 Brazil/97-11/1997
[24] = molecular target: HLA-A*32:01; test: as above; details: source organism: Dengue virus 1 Brazil/97-11/1997
[25] = molecular target: HLA-A*68:01; test: as above; details: source organism: Dengue virus 1 Brazil/97-11/1997
[26] = molecular target: HLA-B*58:01; test: as above; details: source organism: Dengue virus 2 Jamaica/1409/1983
[27] = molecular target: HLA-A*68:02; test: as above; details: source organism: Dengue virus 2 Jamaica/1409/1983
[28] = molecular target: HLA-B*57:01; test: as above; details: source organism: Dengue virus 2 Jamaica/1409/1983
[29] = molecular target: HLA-A*02:12; test: IEDB peptide-MHC binding, purified MHC/direct/fluorescence; filed as Kd, often an IC50 or EC50 that approximates it; ≥ and ≤ were set here for values at or beyond the usual limits of such assays; details: source organism: Mycobacterium tuberculosis str. Haarlem
[30] = molecular target: HLA-A*24:02; test: IEDB peptide-MHC binding, purified MHC/competitive/fluorescence; ≥ and ≤ were set here for values at or beyond the usual limits of such assays
[31] = molecular target: HLA-B*39:01; test: IEDB peptide-MHC binding, purified MHC/competitive/fluorescence; filed as Kd, often an IC50 or EC50 that approximates it; ≥ and ≤ were set here for values at or beyond the usual limits of such assays; details: source organism: Macaca mulatta
[32] = molecular target: HLA-B*46:01; test: as above; details: source organism: Macaca mulatta
[33] = molecular target: HLA-B*18:01; test: as above; details: source organism: Macaca mulatta
[34] = molecular target: HLA-A*69:01; test: as above; details: source organism: Macaca mulatta
[35] = molecular target: HLA-B*57:01; test: as above; details: source organism: Macaca mulatta
[36] = molecular target: HLA-A*26:01; test: as above; details: source organism: Macaca mulatta
[37] = molecular target: HLA-B*27:03; test: as above; details: source organism: Macaca mulatta
[38] = molecular target: HLA-B*15:01; test: as above; details: source organism: Macaca mulatta
[39] = molecular target: HLA-A*02:01; test: as above; details: source organism: Macaca mulatta
[40] = molecular target: HLA-B*51:01; test: as above; details: source organism: Macaca mulatta
[41] = source organism: Influenza B virus
[42] = source organism: Escherichia coli O157:H7
[43] = source organism: Zaire ebolavirus
[44] = source organism: Vibrio cholerae
[45] = source organism: Vaccinia virus
[46] = source organism: Sudan ebolavirus
[47] = source organism: Giardia lamblia ATCC 50803
[48] = source organism: Yersinia pestis
[49] = source organism: Vaccinia virus WR
[50] = source organism: Mammarenavirus lassaense

Sequence: KSEPEGTRM
Kd [1, 41]: 3.5 µM
Kd [2, 41]: 19.7 µM
Kd [3, 41]: ≥ 20 µM

Sequence: LMQGSTLPR
Kd ([4]; source organism: Influenza A virus (A/swine/Italy/1509-6/97(H1N1))): 0.0302 µM
Kd ([5]; source organism: Influenza A virus (A/South Carolina/1/1918(H1N1))): 6 µM

Kd [1, 42]: ≥ 20 µM
Kd [6]: ≥ 20 µM
Kd [2, 42]: ≥ 20 µM
Kd [7, 42]: ≥ 20 µM
Kd [8, 42]: ≥ 20 µM
Kd [9]: ≥ 20 µM
Kd [10]: ≥ 20 µM
Kd [11]: 0.318 µM
Kd [12, 42]: ≥ 20 µM
Kd [3, 42]: ≥ 20 µM
Kd [13]: 2.27 µM
Kd [14]: ≥ 20 µM
Kd [15]: ≥ 20 µM
Kd [16]: ≥ 20 µM
Kd [17]: ≥ 20 µM
Kd [18]: ≥ 20 µM
Kd [5, 42]: ≥ 20 µM
Sequence: YECTSRHFT

Sequence: QRVIPVYQV
IC50 [19, 43]: 16.2 µM
IC50 [20, 43]: ≥ 113 µM
IC50 [21, 43]: ≥ 93.5 µM

Kd [1, 42]: ≥ 20 µM
Kd [2, 42]: ≥ 20 µM
Kd [7, 42]: ≥ 20 µM
Kd [8, 42]: ≥ 20 µM
Kd [9]: ≥ 20 µM
Kd [10]: ≥ 20 µM
Kd [11]: ≥ 20 µM
Kd [12, 42]: ≥ 20 µM
Kd [3, 42]: ≥ 20 µM
Kd [13]: 1.45 µM
Kd [14]: ≥ 20 µM
Kd [16]: ≥ 20 µM
Kd [17]: ≥ 20 µM
Kd [18]: ≥ 20 µM
Sequence: EEDAAVDDL

Sequence: IMYPSPNGH
Kd ([22]; source organism: Shigella sonnei Ss046): 0.0077 µM

Sequence: NLQPPALSK
Kd ([22]; source organism: Rickettsia sibirica 246): 0.43 µM

Sequence: VTRFESLK
Kd ([22]; source organism: Influenza A virus (A/Swine/Minnesota/55551/2000(H1N2))): ≥ 20 µM

Sequence: KAYSEAETF
Kd [1, 44]: 0.0215 µM
Kd [2, 44]: 0.0238 µM
Kd [3, 44]: 0.173 µM

Sequence: KTFDTEYQK
Kd ([4]; source organism: dengue virus type 1): 0.128 µM
Kd [23]: 0.388 µM
Kd [24]: 7.72 µM
Kd [25]: 0.0046 µM
Kd ([8]; source organism: Dengue virus 1 Singapore/S275/1990): 0.0125 µM

Sequence: NASGNIVSSV
Kd [26]: 0.112 µM
Kd [27]: 0.048 µM
Kd [28]: 0.464 µM

Sequence: LLGQNTPAI
Kd [29]: 0.004 µM
Kd ([12]; source organism: Mycobacterium tuberculosis): 1.19 µM

Sequence: INNQLLLQK
IC50 [19, 45]: 2.44 µM
IC50 [21, 45]: 64.2 µM

Sequence: MVLASTTAK
Kd ([4]; source organism: Influenza A virus (A/swine/Hannover/1/1981(H1N1))): 0.0461 µM
Kd ([5]; source organism: Influenza A virus (A/turkey/MN/735/79(H6N2))): 0.0159 µM

Sequence: DYHKILTAG
IC50 [19, 43]: 58.5 µM
IC50 [21, 43]: ≥ 164 µM
IC50 [30, 43]: 39.9 µM

Kd [31]: ≥ 20 µM
Kd [32]: ≥ 20 µM
Kd [33]: ≥ 20 µM
Kd [34]: ≥ 20 µM
Kd [35]: ≥ 20 µM
Kd [36]: ≥ 20 µM
Kd [37]: ≥ 20 µM
Kd [38]: ≥ 20 µM
Kd [39]: ≥ 20 µM
Kd [40]: ≥ 20 µM
Kd ([7]; source organism: Pomacentrus moluccensis): 0.0016 µM
Sequence: SAEVVTLWY

Sequence: LRTYTILNR
IC50 [21, 46]: ≥ 286 µM

Sequence: SLLQLPRDK
IC50 [19, 46]: 5.08 µM
IC50 [20, 46]: 16.5 µM
IC50 [21, 46]: 3.84 µM

Sequence: TTHSKGATK
Kd [4, 47]: 0.454 µM
Kd [8, 47]: 0.246 µM
Kd [5, 47]: 0.337 µM

Sequence: TSDGFINGW
Kd [1, 48]: 0.251 µM
Kd [2, 48]: 0.088 µM

Sequence: LVDYGLVSK
IC50 [19, 49]: 1.33 µM
IC50 [21, 49]: 12.5 µM

Sequence: MVQVHSQGR
IC50 [19, 43]: 4.76 µM
IC50 [21, 43]: 61.4 µM

Sequence: TCKAFGLYK
IC50 [19, 49]: 1.14 µM
IC50 [21, 49]: 6.41 µM

Sequence: LTGGTGVGK
IC50 ([19]; source organism: Variola virus): 0.998 µM
IC50 ([21]; source organism: Variola virus): 5.75 µM
IC50 ([30]; source organism: Variola virus): 38.8 µM

Sequence: STFTRGAQK
Kd [4, 50]: 0.027 µM
Kd [8, 50]: 0.0015 µM
Kd [5, 50]: 0.0784 µM

Sequence: AVNNLVELK
Kd ([4]; source organism: Lassa virus Josiah): 0.0775 µM
Kd [8, 50]: 0.0112 µM
Kd [5, 50]: 2.4 µM

Sequence: RLNWLTHLK
Kd ([4]; source organism: Influenza A virus (A/CHU/2-524/2005(H3N2))): 0.0025 µM
Kd ([5]; source organism: Influenza A virus (A/Nagasaki/N03/2005(H3N2))): 0.264 µM
